Reference: patent WO2018083080A2 (dated 2018)
Values belong to the binder of their own block, whether it stands above or below them.

Columns and labels:
[1] = molecular target: T1, recombinant human CFP HIS-tagged (human, UniProt P27918 28-469); assay: flow cytometry; CFP-HIS on enriched mouse NK cells
T1 construct: Secreted from CHO cells, purified on Ni-NTA and by size exclusion; also called huCFP-HIS; HuCFP-HIS; not shown: HIS tag inserted through the reverse primer (C-terminal)

[2] = molecular target: T1, recombinant human CFP HIS-tagged; assay: flow cytometry; CFP-HIS on cells

T1 sequence (P27918 28-469): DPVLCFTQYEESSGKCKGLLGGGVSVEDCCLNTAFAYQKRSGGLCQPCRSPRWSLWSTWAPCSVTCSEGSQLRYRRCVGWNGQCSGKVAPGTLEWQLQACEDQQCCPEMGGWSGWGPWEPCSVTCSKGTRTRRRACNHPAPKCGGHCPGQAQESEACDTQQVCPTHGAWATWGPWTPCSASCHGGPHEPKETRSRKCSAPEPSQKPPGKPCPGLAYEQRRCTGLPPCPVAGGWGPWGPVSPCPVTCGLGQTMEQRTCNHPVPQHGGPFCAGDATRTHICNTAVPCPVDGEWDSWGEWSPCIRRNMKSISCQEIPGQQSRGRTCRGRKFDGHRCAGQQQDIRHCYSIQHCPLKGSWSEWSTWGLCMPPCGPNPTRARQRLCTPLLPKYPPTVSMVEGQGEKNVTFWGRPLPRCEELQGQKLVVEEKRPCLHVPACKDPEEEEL

binding result [1]: binds
B1: mouse NKp46 on Ncr1 WT/WT enriched mouse NK cells (receptor, UniProt Q8C567 17-325, looked up)
chain: QRINTEKETLPKPIIWAKPSIMVTNGNSVNIWCQGAQSASEYQLYFEGSFFALERPKPSRSMNKVRFFISQMTSHTAGIYTCFYQSGELWSKSSNPLKLVVTGLYDTPNLWVYPRPEVTLGENVTFFCQLKTATSKFFLLKERGSNHIQNKYGNIQAEFPMGPVTRAHRGTYRCFGSYNDYAWSFPSEPVTLLITGGVENSSLAPTDPTSSLDYWEFDLSTNESGLQKDSAFWDHTTQNLIRIGLACIILITLVWLLTEDWLSKRKDHEEANRLTNWECRRRWRMQHYFEEEQRNAISMMELKATPGAL
notes: whole, on cells; also called Ncr1 WT/WT NK cells

binding result [2]: no binding (tested: 10ug/ml)
B2: NKp30 on DOMsp30 cells (receptor, UniProt O14931 19-135, looked up)
chain: LWVSQPPEIRTLEGSSAFLPCSFNASQGRLAIGSVTWFRDEVVPGKEVRNGTPEFRGRLAPLASSRFLHDHQAELHIRDVRGHDASIYVCRVEVLGLGVGTGNGTRLVVEKEHPQLG
notes: also called DOMsP cells expressing NKp30
